Results: patent US20200206198A1, “CFTR CHANNEL ACTIVATOR FOR USE IN THE TREATMENT AND/OR PREVENTION OF GLUTEN SENSITIVITY CONDITIONS” (priority 2017, published 2020)

Target: T1, CFTR (Homo sapiens, UniProt P13569)
T1 construct: Immunoprecipitations of endogenous proteins were performed on 500 μg of lysates from Caco-2 cells; host or cells: Caco-2, T84
Test: CFTR channel function in intestinal epithelial cells (forskolin-induced Isc in Ussing chambers; SPQ iodide efflux)
Type: cell-based
Experimental: Human colon adenocarcinoma-derived Caco-2 and T84 cells (Barone, M. V. et al. 2014; Luciani, A. et al. 2010) were obtained from the ATCC. Cells were maintained in T25 flask in Modified Eagle Medium (MEM) for Caco-2, or Ham's F12+DMEM (1:1) for T84, supplemented with 10% fetal bovine serum (FBS), 2 mM Glutamine+1% Non Essential Amino Acids (NEAA) and the antibiotics penicillin\streptomycin (100 units/ml) (all reagents from Lonza). Caco-2 cells were grown in Transwells (Corning, 3470 or 3460) under the normal condition. Briefly, 8×10^4 or 5×10^5 cells were seeded in 6.5-mm diameter or 12-mm diameter, respectively, and grown until the RT reached 800 to 1,200 Ω·cm^2. Transwells with a pore size of 0.4 μm were used. Medium in both the apical and baso lateral chambers was changed every other day. Cells were treated with 20 μg/ml of either with the α-gliadin peptide comprising the P31-43 amino acid sequence of α-gliadin LGQQQPFPPQQPY (SEQ ID 1) (below referred to as P31-43), which is known to induce an enterocyte stress response (Meresse, B. et al.2009; Barone, M. V. et al. 2014; Luciani, A. et al. 2010), the T-cell activating α-gliadin peptide comprising the P57-68 amino acid sequence of α-gliadin (QLQPFPQPQLPY SEQ ID 2)) (below referred to as P57-68) (Maiuri, L., et al. 2003; Meresse, B. et al.2009; 30 Barone, M. V. et al. 2014), or the scrambled GAVAAVGVVAGA (SEQ ID 3) control peptide (below referred to as PGAV), or with different modified P31-43, either biotin-tagged or not, for different time points (from 1 h short challenge up to 24 h). Cells were also treated with 50 or 100 5 μg/ml of P57-68 or PGAV peptides for 3 h.
Caco-2 or T84 cells were also treated with: CFTR potentiators VX-770 (Ivacaftor) (10 μM) or VX-532 (20 μM) (Selleck chemicals) or Genistein (10 μM) (Verkman, A. S. et al. 2005; Jih, K. Y. et al. 2013) (Sigma-Aldrich) or in presence or absence of CFTR inhibitor172 (CFTRinh172, 20 μM).
Human colon adenocarcinoma-derived Caco-2 and T84 cells were obtained from the ATCC. Cells were maintained in T25 flask in Modified Eagle Medium (MEM) for Caco-2, or Ham's F12+DMEM (1:1) for T84, supplemented with 10% fetal bovine serum (FBS), 2 mM Glutamine+1% Non Essential Amino Acids (NEAA) and the antibiotics penicillin\streptomycin (100 units/ml) (all reagents from Lonza) (Luciani, A., et al. 2010. Cells were grown in Transwells (Corning, 3470 or 3460) under the normal condition (Luciani, A., et al. 2012). Briefly, 8×10^4 or 5×10^5 cells were seeded in 6.5-mm diameter or 12-mm diameter, respectively, and grown until the RT reached 800 to 1,200 Ω·cm2. Transwells with a pore size of 0.4 μm were used. Medium in both the apical and basolateral chambers was changed every other day. […]

T1 sequence (P13569 whole entry): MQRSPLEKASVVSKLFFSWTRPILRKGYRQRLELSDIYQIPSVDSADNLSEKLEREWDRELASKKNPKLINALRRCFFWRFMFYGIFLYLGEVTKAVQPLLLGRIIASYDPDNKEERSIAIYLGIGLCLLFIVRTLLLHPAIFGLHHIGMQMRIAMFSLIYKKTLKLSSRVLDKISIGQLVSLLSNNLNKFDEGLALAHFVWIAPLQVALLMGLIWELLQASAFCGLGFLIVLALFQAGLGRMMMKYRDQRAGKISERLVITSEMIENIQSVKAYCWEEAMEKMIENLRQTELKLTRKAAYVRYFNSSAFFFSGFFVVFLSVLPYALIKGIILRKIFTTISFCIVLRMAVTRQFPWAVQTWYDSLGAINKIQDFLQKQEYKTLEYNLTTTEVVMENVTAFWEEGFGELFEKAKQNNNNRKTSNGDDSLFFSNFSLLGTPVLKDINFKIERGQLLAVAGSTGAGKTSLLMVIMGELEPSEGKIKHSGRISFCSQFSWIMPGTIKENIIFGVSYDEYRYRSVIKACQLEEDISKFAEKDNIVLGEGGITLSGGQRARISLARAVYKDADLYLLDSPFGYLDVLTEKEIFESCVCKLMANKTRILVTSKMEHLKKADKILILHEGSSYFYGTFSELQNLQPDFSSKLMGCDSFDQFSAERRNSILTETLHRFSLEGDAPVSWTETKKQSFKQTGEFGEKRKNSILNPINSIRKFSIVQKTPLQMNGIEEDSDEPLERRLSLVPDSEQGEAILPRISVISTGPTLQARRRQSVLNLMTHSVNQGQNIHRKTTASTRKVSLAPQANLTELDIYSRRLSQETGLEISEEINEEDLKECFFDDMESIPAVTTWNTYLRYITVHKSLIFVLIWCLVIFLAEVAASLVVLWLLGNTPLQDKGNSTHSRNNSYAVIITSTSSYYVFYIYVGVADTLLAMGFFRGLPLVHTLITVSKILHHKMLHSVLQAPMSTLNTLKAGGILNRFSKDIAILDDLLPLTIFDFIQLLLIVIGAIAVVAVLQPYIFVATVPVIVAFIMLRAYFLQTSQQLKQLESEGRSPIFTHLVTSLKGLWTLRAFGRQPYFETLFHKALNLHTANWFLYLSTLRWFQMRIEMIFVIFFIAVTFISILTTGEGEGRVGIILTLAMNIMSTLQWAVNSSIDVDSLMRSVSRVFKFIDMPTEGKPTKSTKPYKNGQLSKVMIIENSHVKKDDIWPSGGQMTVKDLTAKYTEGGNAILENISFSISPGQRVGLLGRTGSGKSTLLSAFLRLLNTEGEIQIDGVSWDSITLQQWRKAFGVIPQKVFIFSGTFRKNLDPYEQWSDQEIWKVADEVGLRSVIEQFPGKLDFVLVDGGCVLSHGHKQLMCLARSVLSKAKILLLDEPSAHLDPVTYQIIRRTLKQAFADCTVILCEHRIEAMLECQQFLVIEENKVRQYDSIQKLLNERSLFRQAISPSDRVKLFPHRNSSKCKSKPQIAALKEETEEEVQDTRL

α-gliadin peptide LGQQQPFPPQQPY (SEQ ID 1), induces an enterocyte stress response (P31-43 sequence of alpha-gliadin)
reduction of CFTR channel function in response to forskolin (20 μg/ml peptide, intestinal epithelial cells (Caco-2, T84)): did reduce CFTR channel function

CC(C)(C)c1cc(C(C)(C)C)c(NC(=O)c2c[nH]c3ccccc3c2=O)cc1O [VX-770, N-(2,4-di-tert-butyl-5-hydroxyphenyl)-4-oxo-1,4-dihydroquinoline-3-carboxamide]
prevention of P31-43 induced decrease of CFTR function (VX-770 10 μM, VX-532 20 μM, Genistein 10 μM, Caco-2 or T84 cells): Prevents P31-43 Induced Inhibition of CFTR Function
